Molecular target: T1, human CLDN18.2 on tumor cells (NUGC-4, KATO III-hCLDN18.2, DAN-G-hCLDN18.2) (human, UniProt P56856-2 1-261)
T1 construct: whole, on cells; also called Claudin18.2; DNA-G cells overexpressing Claudin18.2
Test: FACS binding to NUGC-4 gastric cancer cells (MFI vs Log [Conc(nM)])

B1: HB37A6 (antibody, human IgG1, kappa, V domains shown)
VH: EVQLLDSGGGLVQPGGSLRLSCAASGFTFSSYVMSWVRQAPGKGLNWVSTISHSGGSTYYADSVKGRFTISRDNSKNTLYLQMNSLRAEDTAVYYCAIDAPYYDILTGYRYWGQGTLVTVSS
VL: not shown
notes: Fully human; expressed in HEK293 cells as a full-length human IgG1 kappa monoclonal antibody
How did the EC50 turn out when B1 was run?
The EC50 was 1.05 nM.

Reference: patent US20240293457A1 (Innovent, published 2024)
